Sequences and labels used below:
B1: V5-tagged full-length OX1R [mouse] / Myc-tagged Dynlt1 [mouse] (parent complex)
chain 1: MEPSATPGAQPGVPTSSGEPFHLPPDYEDEFLRYLWRDYLYPKQYEWVLIAAYVAVFLIALVGNTLVCLAVWRNHHMRTVTNYFIVNLSLADVLVTAICLPASLLVDITESWLFGQALCKVIPYLQAVSVSVAVLTLSFIALDRWYAICHPLLFKSTARRARGSILGIWAVSLAVMVPQAAVMECSSVLPELANRTRLFSVCDEHWADELYPKIYHSCFFIVTYLAPLGLMAMAYFQIFRKLWGRQIPGTTSALVRNWKRPSEQLEAQHQGLCTEPQPRARAFLAEVKQMRARRKTAKMLMVVLLVFALCYLPISVLNVLKRVFGMFRQASDREAVYACFTFSHWLVYANSAANPIIYNFLSGKFREQFKAAFSCCLPGLGPGSSARHKSLSLQSRCSVSKVSEHVVLTTVTTVLS
chain 2: MEDFQASEETAFVVDEVSSIVKEAIESAIGGNAYQHSKVNQWTTNVLEQTLSQLTKLGRPFKYIVTCVIMQKNGAGLHSASSCFWDSSTDGSCTVRWENKTMYCIVSTFGLSI

The assay covers variants of B1. Description: co-IP, quantification of Western blotting bands; parent: 100; read off a plot.
Take chain 1 MEPSATPGAQPGVPTSSGEPFHLPPDYEDEFLRYLWRDYLYPKQYEWVLIAAYVAVFLIALVGNTLVCLAVWRNHHMRTVTNYFIVNLSLADVLVTAICLPASLLVDITESWLFGQALCKVIPYLQAVSVSVAVLTLSFIALDRWYAICHPLLFKSTARRARGSILGIWAVSLAVMVPQAAVMECSSVLPELANRTRLFSVCDEHWADELYPKIYHSCFFIVTYLAPLGLMAMAYFQIFRKLWGRQIPGTTSALVRNWKRPSEQLEAQHQGLCTEPQPRARAFLAEVKQMRARRKTAKMLMVVLLVFALCYLPISVLNVLKRVFGMFRQASDREAVYACFTFSHWLVYANSAANPIIYNFLSGKFREQFKAAFSCCLPGLGPGSSARHKSLSLQSRCSVSKVSEHVVLATVATVLS [chain 1 T409A, chain 1 T412A]: the percent of parent was ~28 % vs OX1R wild-type.

For the origin of these results see article PMC3197643 (2011).
